Experimental data published in publication PMC5279944.

Assays:
[1] = biological target: plasma fibronectin purified from Fn1^syn/syn mice (pFN^syn) (mouse)
[2] = biological target: plasma fibronectin purified from Fn1^syn/syn mice (pFN^syn) (mouse); remark: listed apart in the source
[3] = biological target: plasma fibronectin purified from Fn1^syn/syn mice (pFN^syn) (mouse); test: cross-linking; serum-starved Fn1-KO fibroblasts seeded (15, 30 and 60 min) on pFN-coated glass coverslips, spun or not spun; 1 mM DTSSP 15 min at 4°C; cross-linked fraction released with 25 mM DTT, α5 integrin western blot; cross-linked over total integrin
[4] = biological target: plasma fibronectin purified from Fn1^syn/syn mice (pFN^syn) (mouse); remark: listed apart in the source

With “αIIbβ3 integrin on mouse platelets (from UniProt Q9QUM0 32-1033; O54890 26-787) (receptor)” the adhesion of wild-type platelets under shear flow (1000/s, 10 min), pFN^syn compared to pFN^wt (fold reduction) [1] was 10.

With “α5β1 integrin, endogenous on mouse cells (Fn1-KO fibroblasts) (from UniProt P11688 45-1053; P09055 21-798) (receptor)” the pY397-FAK level in Fn1-KO cells plated on pFN^syn compared to pFN^wt [2] was 54 % decrease, the α5 integrin crosslinked to FN, percent of that on pFN^wt [3] was 60% and the adhesion strength (τ50, spinning disk) of Fn1-KO cells on pFN^syn compared to pFN^wt [4] was 16 % decrease. The mean spreading area of Itgb3^-/- platelets seeded for 60 min on pFN^syn [1] was 3.8 μm^2.
